Experimental data published in the DeepSol protein solubility set.

assay: soluble on expression in E. coli; label from the status in PepcDB or PDB records

Soluble on expression in E. coli, not soluble:
MGSDKIHHHHHHGREEKTVYDFPLEQSLKSDKEVSLNKELLAPYLMCSYDSTLCLIDWTANPMVHVYNMNTGKEMVAFGNKGMGPDDFLSISQMYVDMGKRSLLLYDQSLQTISSFQIDSLAQGSLSKIDCVSAPKLGMNRVYAYSDSIFYGSGTFESGLIAKCNQKEILNQYLPFPHTEQAVNRDVNYLLFQGDLIMKPDKKRFAYLAYECDLLSIQKVVNDTCLESVVHLNTYTPVFENQSTNEVSSVNVSTDSPKGFLRGVATENYVYALYSGQIGKNKAIANEVYVFDWEGRAVKKVILDRWGICISVDSNDERLCLMTKETDGGEERYHYYCYQLN
MAHHHHHHMLLRASASSTLRTRGASCCSGACTGLYGSGSLTVQQRFIEYWGSGVTGRTQPYAQGDMIPRVDNMRYPVNKATSAAASLTGNQSSIAYDTSSIFQVEGFSPLEKEHYQSLRGSTRHKVESLPPHIGKDVMVLLKNMSEEGLLEEHWWARVVKDFPSMKTPCTAEFKSAWEKFYTEASGVADDNEAVKAISRPFLQTQMQKNYIAYAMVWRVAERLCEAFDAVPHVTVYERRGGRLVVERVTKLMLDTIADEPWAHQETTSPLHVDISNFRAWHEAGYW
MGSDKIHHHHHHMEELFTYKEFIKMMQNYGIRHKKRKLRRNENVMTNSSSPNSVILLIKGYICSYTCESPETLLSVFEPGVFLSYSILEDLPPLVTNIALSEECIVYEYEKEDIEYALSLFPENFGFQYFFLKKIGRHLYYKALLNAKDHQEKLYYTIKYLGKLIGEKDGKGNIVLPPEITIKILIEYSTLSKAAFYRQRIRLIEEEILKPHKKTFLVPKKVVKHYEKQLTSI
MFTQRKKWLSGVAAGLLMAASVSASAEEKILHIYNWSDYIAPDTLANFQKETGIKVVYDVFDSNEVLEGKLMAGSTGFDLVVPSASFLERQLSAGVFKPLDKSKLPNEKNLDPELLALVSKHDPDNKYAIPYLWATTGIGYNVEKVKAVLGEDAPVNSWDLVLKPENLEKLKSCGVSFLDAPSEIFATVLNYLGKDPNSTLTADYTGSATDLLLKLRPNIRYFHSSQYINDLANGDICVAVGWAGDIMQASNRAKEAKNGVNVAYSIPKEGALAFFDVFAMPTDAKNQDEAYQFLNYLMRPDVIANISNHVFYANANQAATPLVNAEVRDNPGIYPPADVRAKMFTLKVQDPKIDRVITRAWTKVKSGK
MGSDKIHHHHHHMHLDNEADHHSENKAEAPGIQPAVTRNVADISPQIAQCAVEWLVELQAADHDEATHEAFQRWLAAHPDHKLAWQHIETVNTRFNGLTSPLGSAVAKAVLTPRRSLKRRQIIKTLVVILFAGSTGWWADEKIPWRAWTADERTHIGQRRNITLADGSRVVLNTDTAINIRFTANERRLQLVRGEILVTTNQDSASIVRPFIVEIAQSELRPLGTRFTIHQQTTSNRLSVFEGAVEIRLRQDINYRHIVQAGEQVDFSNQGIHEIHPADDTSTAWSNGMIIASSMRLADFLAELDRHRPGKLNCDPAVADLRVSGTYPLTDPEDILDALQTTLPVKIQYFTRYWVTVRPAS
MREINMILYIHIPFCENKCGYCAFNSYENKHGLKEEYTQALCLDLKHALSQTDEPIESVFIGGGTPNTLSVKAFERIFESIYQHASLSLDCEITTEANPELITKAWCQGLKGLGINRLSLGVQSFREDKLLFLERQHSKNIAPAIETILKSGIENISIDLIYNTPLDNENSLKEELKLAKELPINHLSAYALSVEKNTNLEKNAKKPSCAHFDNVVREILEGFSFKQYEVSNYARNYQVKHNLAYWGAKDYLGCGAGAVGCVANERFFAKKLIENYIKDPLQRQVETLNKQDKRLEKLFLGLRCVLGVELSFLDENKVKFLIEENKAFIKNNRLIASDFFMADEMALWLLLEHHHHHH
MAHHHHHHMGGPREVTLKILDAIEAELKMSFKSIVEDRSLPYVSSSDTILVFGRSSLVEYILLSRSRDPQCKPKRVIVIDSAPLFEGRQLAEKLSSAGIDVTYGLITACCTLMPKCTRVFMGASAVLQNGDMFGRCGMALVAACAKLFRKPVLCFSESYKFVPEVWVGNLAQNTKLADMRPAAEVHGSDTGTHSPLVYPTPPTLSPPQLRASGGWGTPARGADFLTRSGGGGAVPFSSSASGYLYDLTPASYIDMIICEMGCLHTSAIVAAIKDREGRDTSQLLNLVRG
